Measured values taken from the supplement of paper PMC10567573.

B1: IKZF1 (parent)
chain: YHSQDRYEFSSHITRGEHRFHMS

Variants of: B1
Test: protein stability index of a GFP-peptide fusion (GPS, HEK-293T) (PSI 1-6); higher = more stable
Conditions: c terminus: native
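Also: lentivirally expressed fusions sorted by FACS into six bins by GFP to DsRed ratio, PSI derived from sequencing read proportions per bin multiplied by bin number.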

Variant | protein stability index
H21R | 2.88
H21L | 2.13
H21C | 1.69
H21T | 2.04
H21F | 1.98
H21N | 2.27
H21Y | 1.76
H21S | 1.89
H21K | 1.37
H21M | 1.6
H21V | 2.25
H21W | 1.81
H21Q | 2.22
H21A | 2.43
H21E | 1.44
H21G | 2.11
H21P | 1.89
H18D | 1.12
H18W | 2.34
H18Q | 1.72
H18S | 1.83
H18E | 1.97
H18A | 1.45
H18T | 1.92

Variant | protein stability index
H18M | 2.75
H18P | 1.81
H18I | 1.65
H18N | 1.45
H18V | 1.68
H18K | 2.22
H18G | 1.6
H18R | 1.82
H18Y | 1.83
H18F | 2.66
H2W | 2.41
H2I | 1.94
H2P | 3.48
H2Q | 2.4
H2N | 3.72
H2F | 2.51
H2Y | 2.85
H2E | 3.98
H2R | 3.37
H2V | 2.58
H2K | 2.01
H2S | 3.36
H2M | 2.48
H2T | 3.16

Variant | protein stability index
H2C | 2.04
H2L | 2.02
H2G | 3.11
F9P | 1.73
F9G | 1.97
F9N | 1.8
F9R | 1.67
F9I | 2.03
F9E | 1.97
F9T | 1.49
F9S | 3.12
F9H | 2.04
F9W | 3.1
F9L | 1.96
F9C | 2.54
S10L | 1.66
S10P | 2.08
S10T | 1.62
S10Y | 2
S10R | 1.9
S10K | 1.27
S10E | 1.74
S10W | 3.17
S10F | 2.1

Variant | protein stability index
S10H | 1.84
S10G | 1.92
S10D | 1.74
S10M | 1.6
S10I | 1.92
S10A | 1.4
R19N | 2.27
R19H | 1.3
R19Y | 2.16
R19M | 1.92
R19C | 3.13
R19W | 2.84
R19E | 3.06
R19Q | 2.28
R19L | 2.54
R19I | 2.17
R19V | 2.16
R19F | 2.39
R19G | 1.89
R19P | 1.77
R19A | 2.47
R19S | 1.99
R19K | 1.95
M22Q | 2.11

Variant | protein stability index
M22E | 1.82
M22C | 3.14
M22T | 2.06
M22I | 2.48
M22Y | 1.56
M22G | 3.65
M22L | 1.4
M22N | 2.06
M22H | 1.66
M22F | 1.53
H12P | 2.27
H12C | 2.66
H12Y | 1.98
H12D | 1.88
H12K | 2.31
H12F | 2.04
H12A | 1.71
H12Q | 2.83
H12W | 2.85
H12V | 2.49
H12M | 2.74
H12E | 2.47
H12R | 2.79
H12I | 1.92

Variant | protein stability index
D5C | 3.34
D5N | 1.84
D5S | 1.79
D5R | 1.61
D5G | 2.85
D5Y | 2.05
D5H | 2.74
D5F | 2.55
D5V | 2.31
D5M | 3.27
E8M | 2.11
E8C | 2.5
E8V | 1.98
E8N | 3.99
E8K | 3.34
E8D | 2.45
E8R | 1.8
E8S | 3.3
E8P | 3.38
E8L | 4.01
E8T | 3.44
E8G | 1.72
E8Q | 2.17
E8F | 3.7

Variant | protein stability index
S3D | 2.76
S3A | 2.66
S3Y | 1.63
S3R | 2.47
S3G | 2
S3M | 1.95
S3L | 2.39
S3W | 2.61
S3I | 2.73
S3E | 2.56
S3T | 2.13
S3Q | 2.54
S3F | 1.76
S3K | 2.33
S3H | 2.14
S11D | 2.01
S11F | 2.9
S11E | 2.15
S11M | 1.48
S11N | 1.92
S11K | 1.95
S11T | 2.02
S11W | 2.27
S11H | 1.61

Variant | protein stability index
S11I | 1.65
S11L | 3.83
S11R | 2.33
S11A | 2.36
S23T | 2.02
S23M | 1.62
S23Q | 2.68
S23P | 2
S23D | 1.5
S23A | 1.8
S23H | 2.23
S23N | 2.08
S23L | 1.68
S23C | 1.94
S23V | 1.97
S23Y | 2.42
S23R | 1.61
Y1F | 1.73
Y1S | 4.05
Y1R | 4.05
Y1E | 4
Y1L | 3.37
Y1N | 4.05
Y1A | 3.73

Variant | protein stability index
Y1V | 3.57
Y1Q | 3.99
Y1I | 3.35
Y1P | 3.84
Y1M | 3.5
Y1T | 3.5
Y1W | 2.94
Y1H | 3.76
I13H | 2.36
I13F | 1.81
I13M | 2.04
I13Y | 1.49
I13N | 2.05
I13W | 1.71
I13A | 1.85
I13K | 1.82
I13C | 2.08
I13T | 1.97
I13Q | 1.62
I13V | 1.78
I13G | 2.7
I13E | 1.83
I13P | 1.78
I13S | 2.03

Variant | protein stability index
F20M | 1.83
F20A | 2.15
F20T | 1.75
F20K | 2.38
F20S | 2.05
F20W | 2.93
F20I | 3.73
F20L | 2.37
F20N | 2.56
F20H | 1.93
F20D | 1.76
F20V | 1.39
F20G | 1.67
F20P | 1.59
F20R | 2.36
F20Y | 1.75
F20E | 1.42
F20Q | 2.5
F20C | 2.12
R6A | 2.22
R6M | 2.65
R6I | 2.25
R6E | 2.29
R6Y | 2.24

Variant | protein stability index
R6T | 1.8
R6D | 2.49
R6S | 1.87
R6W | 2.83
R6C | 2.84
R6F | 3.44
R6K | 2.64
R6P | 2.23
R6V | 2.07
R6L | 2.98
Q4T | 1.63
Q4W | 2.22
Q4R | 1.94
Q4G | 2.3
Q4I | 1.57
Q4N | 1.89
Q4P | 1.94
Q4A | 2.13
Q4Y | 1.77
T14R | 2.07
T14F | 1.47
T14W | 2.7
T14P | 1.52
T14L | 2.23

Variant | protein stability index
T14N | 2.24
T14H | 1.99
T14G | 1.54
T14Q | 1.34
T14M | 1.84
T14V | 2.04
T14D | 1.83
T14Y | 1.37
T14C | 1.58
T14K | 1.49
T14S | 1.85
G16E | 3.6
G16W | 1.51
G16V | 1.35
G16T | 2.4
G16S | 1.5
G16A | 1.76
G16Q | 1.58
G16N | 2.04
G16P | 2.01
G16L | 1.53
G16Y | 4.64
G16F | 1.9
G16R | 2.38

Variant | protein stability index
G16D | 2.52
G16M | 2.85
G16K | 2.27
E17S | 1.64
E17C | 3.05
E17M | 1.71
E17K | 2.41
E17A | 2.75
E17I | 2.84
E17N | 2.92
E17P | 2.04
E17R | 1.94
E17Y | 1.7
E17L | 2.11
E17V | 1.68
E17D | 1.63
E17Q | 2.48
Y7C | 1.91
Y7H | 1.49
Y7L | 2.33
Y7R | 2.08
Y7D | 2.26
Y7N | 1.72
Y7K | 1.51

Variant | protein stability index
Y7V | 2
Y7I | 2.27
Y7F | 2.78
Y7M | 1.95
Y7S | 2.2
Y7E | 2.18
R15F | 2.34
R15Q | 2.22
R15W | 1.82
R15E | 1.81
R15V | 1.82
R15P | 1.42
R15A | 2.46
R15N | 1.99
R15H | 1.73
R15K | 1.8
R15S | 1.55
R15G | 1.87
R15C | 2.69
R15M | 1.47
R15I | 3.49
R15D | 2
